Measurements from PMC11272584 (Nature Metabolism, 2024).
Residue numbers refer to the chain shown, from its start.

Legend:
GIPR R43G (human) = target: T1, GIPR R43G (human) (UniProt P48546)
T1 sequence: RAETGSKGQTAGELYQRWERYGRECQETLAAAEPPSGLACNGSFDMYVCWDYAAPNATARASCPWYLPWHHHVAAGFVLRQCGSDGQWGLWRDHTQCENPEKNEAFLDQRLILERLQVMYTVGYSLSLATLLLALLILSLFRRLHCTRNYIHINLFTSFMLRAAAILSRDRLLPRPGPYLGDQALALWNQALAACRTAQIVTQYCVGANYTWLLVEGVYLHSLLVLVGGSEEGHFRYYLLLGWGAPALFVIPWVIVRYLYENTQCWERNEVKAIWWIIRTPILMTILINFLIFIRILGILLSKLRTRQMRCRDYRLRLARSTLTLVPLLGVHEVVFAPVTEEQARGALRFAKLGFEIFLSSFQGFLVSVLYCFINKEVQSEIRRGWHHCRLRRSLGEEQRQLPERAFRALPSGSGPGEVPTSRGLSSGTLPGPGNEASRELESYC

GIPR M67R (human) = target: T2, GIPR M67R (human) (UniProt P48546)
T2 sequence: T1 sequence with G22R, M46R

GIPR R164Q (human) = target: T3, GIPR R164Q (human) (UniProt P48546)
T3 sequence: T1 sequence with G22R, R143Q

GIPR P195R (human) = target: T4, GIPR P195R (human) (UniProt P48546)
T4 sequence: T1 sequence with G22R, P174R

GIPR E461* (human) = target: T5, GIPR E461* (human) (UniProt P48546)
T5 sequence: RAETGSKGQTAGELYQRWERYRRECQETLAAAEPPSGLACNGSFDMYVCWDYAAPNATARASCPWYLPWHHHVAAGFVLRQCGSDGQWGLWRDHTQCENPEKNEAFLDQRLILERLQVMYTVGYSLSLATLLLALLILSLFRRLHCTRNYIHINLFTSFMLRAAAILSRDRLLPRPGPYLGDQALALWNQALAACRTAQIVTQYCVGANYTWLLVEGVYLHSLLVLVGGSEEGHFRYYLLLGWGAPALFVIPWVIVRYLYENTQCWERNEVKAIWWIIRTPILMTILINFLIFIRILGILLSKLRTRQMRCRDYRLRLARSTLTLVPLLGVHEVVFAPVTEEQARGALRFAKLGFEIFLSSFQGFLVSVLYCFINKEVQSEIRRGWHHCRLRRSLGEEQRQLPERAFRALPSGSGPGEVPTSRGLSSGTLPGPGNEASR

GIPR E291K (human) = target: T6, GIPR E291K (human) (UniProt P48546)
T6 sequence: T1 sequence with G22R, E270K

β-arrestin 2 recruitment (BRET) on stimulation with GIP(1-42): logEC50 (Arrestin) (log M (inferred)) (GIPR R43G (human)): -9.1 | β-arrestin 2 recruitment (BRET) on stimulation with GIP(1-42): logEC50 (Arrestin) (log M (inferred)) (GIPR M67R (human)): -8.16 | β-arrestin 2 recruitment (BRET) on stimulation with GIP(1-42): logEC50 (Arrestin) (log M (inferred)) (GIPR R164Q (human)): -8.92 | β-arrestin 2 recruitment (BRET) on stimulation with GIP(1-42): logEC50 (Arrestin) (log M (inferred)) (GIPR P195R (human)): -9.04 | β-arrestin 2 recruitment (BRET) on stimulation with GIP(1-42): logEC50 (Arrestin) (log M (inferred)) (GIPR E461* (human)): -9.17 | β-arrestin 2 recruitment (BRET) on stimulation with GIP(1-42): logEC50 (Arrestin) (log M (inferred)) (GIPR E291K (human)): -8.48
Substance: β-arrestin 2 (Rluc8-Arrestin-3-Sp1) (from UniProt P32121 1-409) (natural protein)
